One molecule from US20100291188A1, “Periostin Inhibitory Compositions for Myocardial Regeneration, Methods of Delivery, and Methods of Using Same” (MUSC FOUNDATION FOR RESEARCH DEVELOPMENT, priority 2008, published 2010) can be followed below.

Entries after “also recorded” stand apart in the source; their conditions may differ.

In one assay the test system is wild-type fibroblast. As to the kind of experiment: Fibroblast migration on periostin and collagen coated dishes. The conditions noted are these: varying amounts of periostin and collagen coated on dishes. Format: cell-based. As to the method:
FIG. D-2: Varying amounts of periostin and collagen coated dishes were assayed for their ability to promote wild-type fibroblast migration.
A final additional approach to be considered for this aim involves alternative migration assays. Scratch assays are a standard two-dimensional in vitro “wounding” assay whereby a small scratch is introduced into a confluent monolayer of cells and the time the cells take to invade and fill in the empty area provides a measure of migration^78. Thus, these assays will be employed to assess the 2-dimensional migratory capabilities of the “unidentified cells”. The time it takes for “unidentified” cells to fill the gap will be compared to that of wild-type cardiac fibroblasts. Preliminary data on fibroblasts has been previously performed and serves as a benchmark for comparison (FIG. D-2). This 2-D culture assay will serve as a nice complement to the 3-D migration and invasion assay proposed in Experiment 2.

For assay [1], the system named is Mesenchyme from periostin null mice. Nature of the assay: Hanging drop culture of periostin null mesenchyme with purified periostin protein, Western analysis for collagen I. Conditions: 7 days, purified periostin protein 10 µg/ml vs PBS. Format: cell-based, mouse. As to the method: FIG. C-4: Periostin regulates collagen I synthesis. Mesenchyme from periostin null mice were placed in hanging drop cultures and incubated with either purified periostin protein (10 µg/ml) or PBS. Mesenchyme from wild-type mice were used as control tissues. After 7 days, tissues were analyzed for periostin and collagen expression by Western analysis. […] Actin is used for protein normalization (B) Graphical representation of Western analyses presented in panel A obtained from densitometric analyses using NIH image software. Values obtained were compared against wild-type values (baseline) and represented as relative percent change. * denotes p<0.05
To further determine the potential for periostin to affect fibroblast differentiation, we compared mesenchymal cells isolated from periostin null and wild-type mice, in addition to performing “rescue” experiments. For this study, we isolated atrioventricular mesenchyme from E12.5 periostin null and wild-type mice and placed them in hanging drop cultures for 7 days. In addition, purified protein was added to a subset of the hanging drops to determine the ability to rescue any defects observed in marker expression. After 7 days, the hanging drops were collected, lysed and Western analyses were performed for the fibroblast markers collagen I[…]I, and I[…]2. […]

B1: purified periostin protein: purified periostin protein, 90 kDa secreted matricellular protein; added to culture medium or coated on dishes (protein, UniProt Q15063 22-836, looked up)
Periostin: NNHYDKILAHSRIRGRDQGPNVCALQQILGTKKKYFSTCKNWYKKSICGQKTTVLYECCPGYMRMEGMKGCPAVLPIDHVYGTLGIVGATTTQRYSDASKLREEIEGKGSFTYFAPSNEAWDNLDSDIRRGLESNVNVELLNALHSHMINKRMLTKDLKNGMIIPSMYNNLGLFINHYPNGVVTVNCARIIHGNQIATNGVVHVIDRVLTQIGTSIQDFIEAEDDLSSFRAAAITSDILEALGRDGHFTLFAPTNEAFEKLPRGVLERIMGDKVASEALMKYHILNTLQCSESIMGGAVFETLEGNTIEIGCDGDSITVNGIKMVNKKDIVTNNGVIHLIDQVLIPDSAKQVIELAGKQQTTFTDLVAQLGLASALRPDGEYTLLAPVNNAFSDDTLSMDQRLLKLILQNHILKVKVGLNELYNGQILETIGGKQLRVFVYRTAVCIENSCMEKGSKQGRNGAIHIFREIIKPAEKSLHEKLKQDKRFSTFLSLLEAADLKELLTQPGDWTLFVPTNDAFKGMTSEEKEILIRDKNALQNIILYHLTPGVFIGKGFEPGVTNILKTTQGSKIFLKEVNDTLLVNELKSKESDIMTTNGVIHVVDKLLYPADTPVGNDQLLEILNKLIKYIQIKFVRGSTFKEIPVTVYTTKIITKVVEPKIKVIEGSLQPIIKTEGPTLTKVKIEGEPEFRLIKEGETITEVIHGEPIIKKYTKIIDGVPVEITEKETREERIITGPEIKYTRISTGGGETEETLKKLLQEEVTKVTKFIEGGDGHLFEDEEIKRLLQGDTPVRKLQANKKVQGSRRRLREGRSQ
For the molecule B1, the fibroblast migration entry in the assay with wild-type fibroblast is reported as “titrating affect of periostin in combination with collagen to stimulate migration”. Further, the “collagen I expression (collagen Iα1 and Iα2, Western analysis)” value in assay [1] was “rescued; also recorded: induces expression of collagen I[…]1 and I[…]2”; in assay [1] (listed as purified protein), “reactivation of collagen isoforms”.
